In article PMC2642718:

Target: CD43 (leukosialin) on the surface of primary human neutrophils (human (endogenous in primary neutrophils)) (UniProt P16150)
UniProt P16150, sequence (P16150 20-400): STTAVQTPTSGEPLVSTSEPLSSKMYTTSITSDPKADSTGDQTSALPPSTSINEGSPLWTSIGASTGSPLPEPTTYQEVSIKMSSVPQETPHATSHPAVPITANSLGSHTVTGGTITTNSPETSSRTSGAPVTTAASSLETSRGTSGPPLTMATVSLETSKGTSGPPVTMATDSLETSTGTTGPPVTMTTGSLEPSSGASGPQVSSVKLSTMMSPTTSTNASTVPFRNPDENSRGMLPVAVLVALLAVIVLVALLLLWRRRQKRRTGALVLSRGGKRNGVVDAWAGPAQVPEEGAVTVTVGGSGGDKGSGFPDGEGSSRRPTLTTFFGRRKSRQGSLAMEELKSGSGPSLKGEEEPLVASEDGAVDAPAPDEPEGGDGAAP

| Substance | migration of human neutrophils across Fbg-coated transwell filters toward fMLP, 25 µg/mL protein (fold reduction) |
| --- | --- |
| StcE (Secreted protease of C1-esterase inhibitor), recombinant purified protein (from UniProt O82882 36-898) (enzyme) | 1.7 |
| StcE E435D, proteolytically inactive point mutant (from UniProt O82882 36-898) (enzyme) | 1.7 |
